# Data taken from US20140120109A1 (Regeneron, published 2014).
# T1: human TL1A, soluble, CHO-expressed, residues 72-251 of SEQ ID NO:244 with N-terminal His6-tag (human, UniProt O95150 72-251)
# T1 construct: also called hTL1A; hTL1A (CHO)
# T1 sequence: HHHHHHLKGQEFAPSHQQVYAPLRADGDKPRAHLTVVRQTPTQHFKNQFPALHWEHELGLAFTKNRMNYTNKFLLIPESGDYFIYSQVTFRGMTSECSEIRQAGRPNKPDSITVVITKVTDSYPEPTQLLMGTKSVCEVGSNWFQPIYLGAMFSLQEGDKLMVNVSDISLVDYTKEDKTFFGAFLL
# T2: cynomolgus monkey TL1A, soluble, CHO-expressed, residues 72-251 of SEQ ID NO:248 with N-terminal His6-tag (cynomolgus monkey (Macaca fascicularis), UniProt O95150 72-251 (human entry))
# T2 construct: also called MfTL1A; MfTL1A (CHO)
# T2 chain: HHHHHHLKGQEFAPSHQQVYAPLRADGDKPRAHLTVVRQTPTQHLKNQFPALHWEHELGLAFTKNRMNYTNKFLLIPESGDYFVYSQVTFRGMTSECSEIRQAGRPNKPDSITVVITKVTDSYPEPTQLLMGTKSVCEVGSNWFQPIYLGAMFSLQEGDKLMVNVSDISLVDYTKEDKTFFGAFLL
# T3: cynomolgus monkey TL1A, soluble, E. coli-expressed, residues 72-251 of SEQ ID NO:248 (cynomolgus monkey (Macaca fascicularis), UniProt O95150 72-251 (human entry))
# T3 construct: with or without N-terminal Met; also called MfTL1A (E. Coli)
# T3 chain: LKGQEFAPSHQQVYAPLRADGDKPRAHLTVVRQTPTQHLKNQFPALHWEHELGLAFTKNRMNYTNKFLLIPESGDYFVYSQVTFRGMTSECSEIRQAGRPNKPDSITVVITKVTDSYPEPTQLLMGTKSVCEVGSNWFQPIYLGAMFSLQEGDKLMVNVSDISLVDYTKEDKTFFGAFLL
# T4: mouse TL1A, soluble, CHO-expressed, residues 76-252 of SEQ ID NO:250 with N-terminal His6-tag (mouse, UniProt Q5UBV8 76-252)
# T4 construct: also called mTL1A; mTL1A (CHO)
# T4 sequence: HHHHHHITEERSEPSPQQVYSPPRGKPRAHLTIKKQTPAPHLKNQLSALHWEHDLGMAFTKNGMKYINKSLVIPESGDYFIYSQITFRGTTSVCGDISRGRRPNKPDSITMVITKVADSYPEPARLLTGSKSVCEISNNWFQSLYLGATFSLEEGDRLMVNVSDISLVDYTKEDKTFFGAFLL
# T5: Fhm, hTL1A(Q167R), soluble, CHO-expressed, residues 72-251 of SEQ ID NO:246 (human, UniProt O95150 72-251)
# T5 chain: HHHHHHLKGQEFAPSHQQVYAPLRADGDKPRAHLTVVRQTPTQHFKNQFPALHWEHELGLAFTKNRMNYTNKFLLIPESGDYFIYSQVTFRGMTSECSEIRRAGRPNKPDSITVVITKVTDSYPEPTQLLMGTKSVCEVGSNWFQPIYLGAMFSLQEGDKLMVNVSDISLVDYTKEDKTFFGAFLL
# T6: rat TL1A, soluble, CHO-expressed, residues 76-252 of SEQ ID NO:258 with N-terminal His6-tag (rat, UniProt Q8K3Y7 76-252)
# T6 construct: also called rTL1A; rTL1A (CHO)
# T6 sequence: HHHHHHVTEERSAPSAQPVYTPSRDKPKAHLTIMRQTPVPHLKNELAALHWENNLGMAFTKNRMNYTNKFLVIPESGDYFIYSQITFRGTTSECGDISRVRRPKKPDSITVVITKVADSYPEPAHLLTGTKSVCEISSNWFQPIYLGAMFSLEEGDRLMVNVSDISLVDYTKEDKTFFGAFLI
# T7: Fhm, hTL1A(Q167R), soluble, E. coli-expressed, residues 72-251 of SEQ ID NO:246 (human, UniProt O95150 72-251)
# T7 construct: with or without N-terminal Met
# T7 chain: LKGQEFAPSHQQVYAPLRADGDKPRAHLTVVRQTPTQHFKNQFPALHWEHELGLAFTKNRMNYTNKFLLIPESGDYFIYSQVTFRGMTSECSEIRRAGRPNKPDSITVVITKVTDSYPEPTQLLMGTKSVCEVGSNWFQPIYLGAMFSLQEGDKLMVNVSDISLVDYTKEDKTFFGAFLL
# Columns and labels:
# [1] = target: T1, human TL1A, soluble, CHO-expressed, …; test: SPR 37C, mAb captured
# Summary of the method: (§1)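 Biacore T100 SPR with captured mAb and soluble TL1A/Fhm analyte; ka and kd fitted to a 1:1 model assuming monomeric TL1A. KD = kd/ka; t1/2 (min) = ln2/(60·kd).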
# [2] = target: T2, cynomolgus monkey TL1A, soluble, …; test: SPR 37C, mAb captured
# Summary of the method: as §1
# [3] = target: T3, cynomolgus monkey TL1A, soluble, E. …; test: SPR 37C, mAb captured
# Summary of the method: as §1
# [4] = target: T4, mouse TL1A, soluble, CHO-expressed, …; test: SPR 37C, mAb captured
# Summary of the method: as §1
# [5] = target: T5, Fhm, hTL1A(Q167R), soluble, …; test: cell-based or functional assay
# [6] = target: T6, rat TL1A, soluble, CHO-expressed, …; test: SPR 37C, mAb captured
# Summary of the method: as §1
# [7] = target: T6, rat TL1A, soluble, CHO-expressed, …; test: cell-based or functional assay
# [8] = target: T7, Fhm, hTL1A(Q167R), soluble, E. …; test: SPR 37C, mAb captured
# Summary of the method: as §1
binder,measurement,setting,value
"H4H1681N (antibody, human IgG4 S228P, V domains shown) VH: EVQLLESGGGLVQPGKSLRLSCAVSGFTFSTYGMNWVRQAPGKGLEWVSSISGTGRTTYHADSVQGRFTVSRDNSKNILYLQMNSLRADDTAVYFCTKERGDYYYGVFDYWGQGTLVTVSS VL: DIQMTQSPSTLSASVGDRVTITCRASQTISSWLAWYQQTPEKAPKLLIYAASNLQSGVPSRFSGSGSGTEFTLTISSLQPDDFATYYCQQYHRSWTFGQGTKVEIT",Kd,[1],0.254 nM
same,t1/2,[1],0.517 h
same,Kd,[2],0.226 nM
same,t1/2,[2],0.533 h
"H4H1752P (antibody, human IgG4 S228P, V domains shown) VH: EVQLVESGGGLVQPGGSLRLSCSASGFTFSKYVMTWVRQAPGKGLEWVSAIGPTGRTTEYADSVQGRFTISRDNSMNTVFLHLNSLTAEDTAEYYCAKMFDWNYDVYFDSWGQGTLVTVSS VL: DIQMTQSPSILSASVGDRVTITCRTSQSISNWLAWYQQKPGKAPNLLIYKASSLESGVPSRFSGSGSGTEFTLTISSLQPDDFATYYCQQYYRYWTFGQGTKVEIK",Kd,[3],1.32 nM
same,t1/2,[3],0.483 h
same,binding result,[4],no binding (tested: up to 100 nM)
same,Kd,[1],0.225 nM
same,t1/2,[1],1.6 h
same,Kd,[2],0.223 nM
same,t1/2,[2],1.52 h
"H4H1805N (antibody, human IgG4 S228P, V domains shown, human IgG4(S108P) form of H2M1805N) VH: QVQLQQWGAGLLKPSETLSLTCAVYGGSFTGFYWSWIRQPPGKGLEWIGEINHRGNTNYNPSLKSRVTMSVDTSKNQFSLNMISVTAADTAMYFCASPFYDFWSGSDYWGQGTLVTVSS VL: DIMLTQTPLTSPVTLGQPASISCKSSQSLVHSDGNTYLSWLQQRPGQPPRLLFYKISNRFSGVPDRFSGSGAGTDFTLKISRVEAEDVGVYYCMQATQFPLTFGGGTKVEIK",Kd,[1],0.299 nM
same,t1/2,[1],1.33 h
same,Kd,[2],0.352 nM
same,t1/2,[2],1.13 h
same,"IC50, NFkB-luciferase reporter",[5],186 nM
"H4H1817N (antibody, human IgG4 S228P, V domains shown, human IgG4(S108P) form of H2M1817N) VH: QVQLQQWGAGLLKPSETLSLTCAVSGGSFSDYFWTWIRQPPGKGLEWIGEISHSGRTNYNPSLKSRVTISVDTSMSQFSLKMTSVTAADSAVYYCARDYPNWVFDYWGQGTLVTVSS VL: EIELTQSPGTLSLSPGEGATLSCRASQSVFNSYLAWYQQKPGQAPRLLIYGASRRATGIPDRFSGSGSGTDFTLTISRLEPGDFAVYFCQQYGNSPLTFGGGTKVEIK",Kd,[6],1.6 nM
same,t1/2,[6],0.433 h
same,Kd,[1],0.0278 nM
same,t1/2,[1],18.3 h
same,Kd,[2],0.0256 nM
same,t1/2,[2],19.2 h
same,"IC50, NFkB-luciferase reporter",[7],23.9 nM
same,"IC50, NFkB-luciferase reporter",[5],0.12 nM
"H4H1818N (antibody, human IgG4 S228P, V domains shown, human IgG4(S108P) form of H2M1818N) VH: RLQLVESGGGLVKPGGSLKLSCAASGFTISDYYMSWIRQAPGKGLEWVSYIGGSGSTIYYADSVKGRFTISRDNAKNSLYLQMNSLRAEDTAVYYCAREDADSYYYYGMDVWGQGTTVTVSS VL: not shown","IC50, NFkB-luciferase reporter",[7],1.1 nM
same,"IC50, NFkB-luciferase reporter",[5],0.62 nM
"H4H1719P (antibody, human IgG4 S228P, V domains shown) VH: EVQLVESGGGLVQPGRSLRLSCVASGFTFQDYAMHWVRQAPGKGLEWVSGINWISDDMGYADSVMGRFTISRDNAKNSLYLQMDSLRAEDTALYYCAKDKGLRFLDYVMDVWGQGTTVTVSA VL: DIVMTQSPLSLPVTPGEPASISCRSTQSLLHRNGHNYLHWYLHKPGQSPQLLIHLGSNRASGVPDRFSGSGSGTDFTLKISRVEAEDVGVYYCMQALQTPYTFGQGTKLEIK",Kd,[6],0.078 nM
same,t1/2,[6],1.43 h
same,Kd,[3],0.289 nM
same,t1/2,[3],0.667 h
same,binding result,[4],no binding (tested: up to 100 nM)
same,Kd,[1],0.00761 nM
same,t1/2,[1],31.9 h
same,Kd,[8],0.174 nM
same,t1/2,[8],0.7 h
same,Kd,[2],0.00201 nM
same,t1/2,[2],96.4 h
same,"IC50, NFkB-luciferase reporter",[5],0.08 nM
"H4H1725P (antibody, human IgG4 S228P, V domains shown) VH: QVQLVQSGAEVKKPGASVKVSCKASGYTFTGYYMHWVRQAPGQGLEWMGWIKPKSGGTNYVQKFQGRVTMTRDTSINTAYMELNNLKSDDTAVYYCATGGSQDASDFWGQGTMVTVSS VL: DIQMTQSPSSVSASVGGRVTITCRASQDISIWLAWYQQKPGKAPNLLIYAASSLQSGVPSRFSGSGSGTDFTLTISSLQPEDFATYYCQQADSFPLTFGGGTKVEIK",Kd,[6],0.411 nM
same,t1/2,[6],0.25 h
same,Kd,[3],0.0622 nM
same,t1/2,[3],2.9 h
same,Kd,[1],0.0239 nM
same,t1/2,[1],12.6 h
same,Kd,[8],0.0436 nM
same,t1/2,[8],3.23 h
same,Kd,[2],0.0177 nM
same,t1/2,[2],14.8 h
same,"IC50, NFkB-luciferase reporter",[7],63.4 nM
same,"IC50, NFkB-luciferase reporter",[5],0.07 nM
"H4H1738P (antibody, human IgG4 S228P, V domains shown) VH: EVQLVESGGALVKPGGSLRLSCAVSGFTFINDWMNWVRQAPGKGLEWVGRIKSTTDGGTTDDAAPVKGRFTISRDDSKNTLYLQMNSLKTEDTAVYYCTRDRNRQRNYFYDGMDVWGQGTTVTVSA VL: DIVMTQSPVSLPVTPGEPASISCRSSQRLLHNNGNNYLDWYLQKPGQSPQLLIYLGSNRASGVPDRFSGSGSGTDFTLKVSRVEAEDVGVYYCMQALQTPYTFGQGTKLEIK",Kd,[3],4.2 nM
same,t1/2,[3],0.0667 h
same,binding result,[4],no binding (tested: up to 100 nM)
same,Kd,[1],0.571 nM
same,t1/2,[1],0.85 h
same,Kd,[8],3.1 nM
same,t1/2,[8],0.0667 h
same,Kd,[2],0.465 nM
same,t1/2,[2],1 h
same,"IC50, NFkB-luciferase reporter",[5],0.33 nM
"H4H1745P (antibody, human IgG4 S228P, V domains shown) VH: EVQLVESGGGLVQPGGSLRLSCAASGFTFSSYAMTWVRQAPGKGLEWVSGVSGRGGSTYYADSVKGRFTISRDNSKNTLYLQMNSLRAEDTAVYYCAYWDISSFDYWGQGTLVTVSS VL: DIQLTQSPSFLSASVGDRVTITCWASQGISTYLAWYQQKPGKTPKLLIYAASTLQSGVPSRFSGSGSGTDFTLTISSLQPEDFATYYCQQFNSYPLTFGGGTKVEIK",Kd,[6],16.5 nM
same,t1/2,[6],0.183 h
same,Kd,[3],0.281 nM
same,t1/2,[3],1.23 h
same,binding result,[4],no binding (tested: up to 100 nM)
same,Kd,[1],0.177 nM
same,t1/2,[1],2.15 h
same,Kd,[8],0.207 nM
same,t1/2,[8],1.18 h
same,Kd,[2],0.173 nM
same,t1/2,[2],2.07 h
same,"IC50, NFkB-luciferase reporter",[5],0.15 nM
"H4H1750P (antibody, human IgG4 S228P, V domains shown) VH: QVQLVESGGGVVQPGRSLRLSCVASGFTFSNYGMHWVRQAPGKGLEWVAVISYDGNNDLYSDSVKGRFTISRDNAKNALSLQMTSLRAEDTAVYYCARDSTMTPYYYHGIDVWGQGTTVTVSA VL: DIQMTQSPSSLSASVGDRVTITCRASQDIRNDLGWYQQKPGKAPKRLIYAASSLQSGVPSRFSGSGSGTDFTLTISSLQPEDFATYYCLQHNSYPPTFGQGTKVEIK",Kd,[3],456 nM
same,t1/2,[3],0.0167 h
same,binding result,[4],no binding (tested: up to 100 nM)
same,Kd,[8],0.244 nM
same,t1/2,[8],5.58 h
same,"IC50, NFkB-luciferase reporter",[5],3.1 nM
